Results on four molecules are retold here after publication PMC13031064.

B1: CYP76AH1 probe (dsDNA)
DNA 1: TATAATAGAACATTTGGGCGATGCTATATAATAGAACATTTGGGCGATGCTA
DNA 2: TAGCATCGCCCAAATGTTCTATTATATAGCATCGCCCAAATGTTCTATTATA
B2: DXS2 probe (dsDNA)
DNA 1: TAAATCCTGACATTTGAATAGTATATTAAATCCTGACATTTGAATAGTATAT
DNA 2: ATATACTATTCAAATGTCAGGATTTAATATACTATTCAAATGTCAGGATTTA
B3: CPS1 probe (dsDNA)
DNA 1: AATCATTTTTCATTTGACTGCCAAGGTAATCATTTTTCATTTGACTGCCAAGGT
DNA 2: ACCTTGGCAGTCAAATGAAAAATGATTACCTTGGCAGTCAAATGAAAAATGATT
B4: KSL1 probe (dsDNA)
DNA 1: TGCATCATCTCATTTGGAGTTTAAAATGCATCATCTCATTTGGAGTTTAAAA
DNA 2: TTTTAAACTCCAAATGAGATGATGCATTTTAAACTCCAAATGAGATGATGCA

The target of this data set is bHLH130-His (SmbHLH130) (Salvia miltiorrhiza, UniProt A0A0H3Y8V8 1-394). The data set is described as follows: EMSA. On the technique in general: In EMSA bound probe runs differently from free probe, usually more slowly.
Take B1: the binding result is “binds”.
For B2 the value was “binds”; for B3, “binds”.
For the molecule B4, the binding result is listed as “binds”.
